According to patent publication US20230192860A1 (Bristol-Myers Squibb, published 2023):
Residue numbers refer to the chain shown, from its start. One block for each binder: values may come before it.

What was measured:
[1] = biological target: T1, monovalent hVISTA-ECD (amino acids 32-193 of SEQ ID NO: 1 with a 7xHis tail) (human, UniProt Q9H7M9 33-193); test: SPR 37C, pH 7.4 over pH 6.0
T1 construct: analyte of the SPR assays; also called huVISTA-His; human VISTA-ECD
Method: Human VISTA binding kinetics of P1-061029 (“ ‘029”), P1-068761 (“ ‘761”) and P1-068767 (“ ‘767”) (as IgG1.3 antibodies) were measured at pH values between pH 7.4 and pH 6.0, i.e., at pH 6.9 and pH 6.45 using a Biacore® T100 instrument (GE Healthcare). […] Antibodies were diluted to 25 nM in PBST pH 7.4, and were captured across active biosensor flow cells at 5 ul/min for 45 seconds. A concentration series of 100 - 0.78 nM monovalent hVISTA-ECD (SEQ ID NO: 325) was prepared pH 7.4, 6.9, 6.45 and 6.0 running buffers, and was injected over the captured antibodies at 40 ul/min to measure association and dissociation. Two 15 second injections of 10 mM glycine pH 1.5 were used to regenerate the Protein A capture surface between assay cycles. Rate constants ka (kₒₙ) and kd (koff) were derived from reference flow cell and 0 nM blank-subtracted sensorgrams, and were fit to a 1:1 binding model in Biacore® T200 Evaluation Software v.2.0. The affinity constant, KD was calculated as the ratio of rate constants koff/kₒₙ for each VISTA antibody. Ratios of koff and KD at each pH relative to pH 6.0 were calculated to evaluate how the VISTA koff and KD change as the buffer pH shifts to physiological, and are shown in Table 7. […] As the buffer pH shifts from acidic to physiological, VISTA koff and KD both weaken for ‘761 and ‘767. […]

[2] = biological target: T1, monovalent hVISTA-ECD (amino acids …); test: SPR 37C, Ab on Protein A, hVISTA-ECD 100-0.78 nM, pH 7.4
Method: Human VISTA binding kinetics of P1-061029 (“ ‘029”), P1-068761 (“ ‘761”) and P1-068767 (“ ‘767”) (as IgG1.3 antibodies) were measured at pH values between pH 7.4 and pH 6.0, i.e., at pH 6.9 and pH 6.45 using a Biacore® T100 instrument (GE Healthcare). […] Antibodies were diluted to 25 nM in PBST pH 7.4, and were captured across active biosensor flow cells at 5 ul/min for 45 seconds. A concentration series of 100 - 0.78 nM monovalent hVISTA-ECD (SEQ ID NO: 325) was prepared pH 7.4, 6.9, 6.45 and 6.0 running buffers, and was injected over the captured antibodies at 40 ul/min to measure association and dissociation. Two 15 second injections of 10 mM glycine pH 1.5 were used to regenerate the Protein A capture surface between assay cycles. Rate constants ka (kₒₙ) and kd (koff) were derived from reference flow cell and 0 nM blank-subtracted sensorgrams, and were fit to a 1:1 binding model in Biacore® T200 Evaluation Software v.2.0. The affinity constant, KD was calculated as the ratio of rate constants koff/kₒₙ for each VISTA antibody. Ratios of koff and KD at each pH relative to pH 6.0 were calculated to evaluate how the VISTA koff and KD change as the buffer pH shifts to physiological, and are shown in Table 7. […] As the buffer pH shifts from acidic to physiological, VISTA koff and KD both weaken for ‘761 and ‘767. Physiological pH data for ‘761 and ‘767 for comparison is referenced from Table 7 and noted with an asterisk (*).

[3] = biological target: T1, monovalent hVISTA-ECD (amino acids …); test: SPR 37C, Ab on Protein A, hVISTA-ECD 50-5 nM, pH 7.4, average
Method: Binding of several preparations of each of the ‘029 progeny clones and of the parent ‘029 antibodies, formatted as IgG1.3 antibodies, to human VISTA at pH 6.0 and 7.4 was measured by Surface plasmon resonance (SPR). SPR analysis was performed to measure koff and KD binding affinity measurements for VISTA Abs at acidic and neutral pHs using a Biacore® T100 instrument (GE Healthcare). […] Antibodies were diluted to 25 nM in PBST pH 7.4, and were captured across active biosensor flow cells at 5 ul/min for 60 seconds. A concentration series of 50 - 5 nM monovalent hVISTA-ECD (SEQ ID NO: 325) was prepared in pH 7.4 and 6.0 running buffers, and was injected over the captured antibodies at 40 ul/min to measure association and dissociation. Two 15 second injections of 10 mM glycine pH 1.5 were used to regenerate the Protein A capture surface between assay cycles. Rate constants ka (kₒₙ) and kd (koff) were derived from reference flow cell and 0 nM blank-subtracted sensorgrams, and were fit to a 1:1 binding model in Biacore® T200 Evaluation Software v.2.0. The affinity constant, KD was calculated as the ratio of rate constants koff/kₒₙ for each VISTA antibody.

[4] = biological target: T1, monovalent hVISTA-ECD (amino acids …); test: SPR, Ab on Protein A, hVISTA 100-7.8 nM, pH 7.4
[5] = biological target: T1, monovalent hVISTA-ECD (amino acids …); test: SPR 37C, pH 7.4 *, value referenced from the 1600 nM assay (same as the 4th table r7)

T1 sequence (Q9H7M9 other isoform, or with tags, fused parts or gaps limits assumed): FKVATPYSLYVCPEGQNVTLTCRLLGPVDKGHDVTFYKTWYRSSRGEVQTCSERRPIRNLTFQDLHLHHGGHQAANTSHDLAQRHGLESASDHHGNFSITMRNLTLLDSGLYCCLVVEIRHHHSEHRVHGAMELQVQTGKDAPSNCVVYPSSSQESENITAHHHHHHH

KD ratio to pH 6.0 [1]: 13.2
koff ratio to pH 6.0 [1]: 1.1
Kd [2]: 26 nM
koff [2]: 0.0064 s⁻¹
kon [2]: 250000 M⁻¹ s⁻¹
Kd [3]: 19 nM
koff [3]: 0.0056 s⁻¹
kon [3]: 290000 M⁻¹ s⁻¹
Kd [4]: 13 nM
koff [4]: 0.00603 s⁻¹
kon [4]: 463000 M⁻¹ s⁻¹
B1: P1-061029.IgG1.3 (antibody)
heavy: EVQLVESGGGLVQPGKSLRLSCAASGFTLDDYAMHWVRQAPGKGLEWVSGINWNSANIGYADSVKGRFTISRDNAKNSLYLQMNSLRTEDTALYYCAKVPGYSGGWIDAFDVWGQGTMVTVSSASTKGPSVFPLAPSSKSTSGGTAALGCLVKDYFPEPVTVSWNSGALTSGVHTFPAVLQSSGLYSLSSVVTVPSSSLGTQTYICNVNHKPSNTKVDKRVEPKSCDKTHTCPPCPAPEAEGAPSVFLFPPKPKDTLMISRTPEVTCVVVDVSHEDPEVKFNWYVDGVEVHNAKTKPREEQYNSTYRVVSVLTVLHQDWLNGKEYKCKVSNKALPAPIEKTISKAKGQPREPQVYTLPPSREEMTKNQVSLTCLVKGFYPSDIAVEWESNGQPENNYKTTPPVLDSDGSFFLYSKLTVDKSRWQQGNVFSCSVMHEALHNHYTQKSLSLSPG
light: not shown
notes: IgG1.3; also called P1-061029 (parent); P1-061029-18

Kd [5]: 11000 nM
koff [5]: 0.042 s⁻¹
kon [5]: 3800 M⁻¹ s⁻¹
B2: P1-068761.IgG1.3 (antibody)
heavy: B1 heavy with D30E, Y32E, A56E, N57E, G104H, F110E
light: not shown
notes: IgG1.3; also called P1-068761-20; P1-068761 hIgG1.3f
